Results taken from patent publication US20140234903.

T1: Nhis-PoyA121 (truncated variant of PoyA, residues 1-121, with the first 24 core amino acids)
T1 chain: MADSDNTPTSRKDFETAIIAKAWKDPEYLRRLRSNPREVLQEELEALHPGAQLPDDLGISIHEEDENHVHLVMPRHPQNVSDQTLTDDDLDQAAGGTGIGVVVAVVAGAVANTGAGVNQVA

T2: N-terminally His6-tagged PoyA (polytheonamide precursor peptide)
T2 chain: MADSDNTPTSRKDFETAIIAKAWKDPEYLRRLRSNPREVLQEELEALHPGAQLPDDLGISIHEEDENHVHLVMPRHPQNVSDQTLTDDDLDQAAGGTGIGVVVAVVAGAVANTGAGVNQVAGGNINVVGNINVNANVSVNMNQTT


Tests used:
[1] = biological target: T1, Nhis-PoyA121 (truncated variant of …)
[2] = biological target: T2, N-terminally His6-tagged PoyA …

Protein	methylation of the C-terminal tryptic peptide 76-121 (LC-ESI/ECD-MS/MS) [1]	number of methylations on PoyA (MS, +14 mass units each) [2]	mass shift of PoyA (ESI-MS) on co-expression; modified residue by LC/MS/MS [2]
PoyE (SAM-dependent methyltransferase (nucleophilic)) (protein) MTPRSLPTEPLAAPAAAALDAALRLLKEYLDDIGYHGIYKYLATANYYAASPSVFNASRPQSLEAFDRQIHEGPDDWMLARCLTTCAPCRLEALPPPARRVAEVLADVGLLVWNGNTLEQGGYQLISVFDRYILLDARIHFGGSQLHDVYIGPDSHLLLYYMPVEAIRPADHILDLCTGTGVIGLGLSRFSEHVVSTDIAPPALRLAHMNRALNNAEGRVSIRAENLQETLASDECFDLIACNPPYVAAPPELPTPLYAQGPDRDGLGYLRLLMERAPEKLNPGGQAMFVVDLIGDTHRPYYFDDLERIAKEQELFIEAFIDNRLKADGQLPAYKFLYARLFHGTPPEEIEQRMRNFIFDELHAYYYYMTTLRVRRRKPSGLRVLDRYRITSYDEFFQQS	Near quantitative monomethylation was observed in this sample, with no evidence of multiple methylation. ECD fragmentation located the site of methylation exclusively to Asn112 (in full-length PoyA numbering)	a suite of peptides increasing by 14 mass units (0 to 8 modifications)	–
PoyF (LanM, N-terminal dehydratase domain) (protein) MMSSSSSREGDALAHAADPTRSIADDITCGLDSLGGPPTVCDAEHPVPFEELWLGFVAHAARALEPLIAPSLHAAVLHDPHGPLRSLLIELAEMGAPAAFELFALYRIREASAASVFGSVRGVESRDTYNAFVKHLATQQLSPLWDAFPALKPLLATRTNLFIAAMAELCQRWEADHVEIMSVFPELRGIGAPQRIRPGLSDAHGGGRTVTRLSFAGGEALFYKPRPVDMEWGCAQFVEWFNGQDHGMPPLRALSVLPRTDYGWMEAARPALCTHVDAVARFYHRAGMLLALADLFCGVDFHSENLIASGEYPVIVDLETLFHPLGPFESQGDALERTELLPRPIYCEDGAPYVICGLGVVPGKAVIELRRRGWININCDNMASCDVTVPWPVGGAVPRNKEGAAPSIATWSGEIVSGFSAMHVFFRTRRNELWSADGPIVQAFGGGRSRFLLRATRIYVELLRRAVQPQALAAHASSSHIFDRLARTGRGWDEIHRVERQALDRMDVPYFTMETTAQFVRGEGRTIHAFFATSGLHMARRRSEFIDDVILNDRAASIRNVLEQSSYSGEATLPDSRVQTDAGAGA	–	–	produced PoyA with a mass 18 Da less than expected (observed 17090 Da, calculated 17108 Da
